Data: publication doi:10.1101/2023.09.15.557927 (bioRxiv, 2023)
No end group written: not given here. *: point of attachment. FITC = O=C1OC2(c3ccc(O)cc3Oc3cc(O)ccc32)c2ccc(NC(=S)*)cc21

Tests used:
[1] = biological target: T1, 6xHis-tagged LC8 (DYNLL2) (human, UniProt Q96FJ2 1-89); assay: SPR
Target sequence in this assay (Q96FJ2 whole entry): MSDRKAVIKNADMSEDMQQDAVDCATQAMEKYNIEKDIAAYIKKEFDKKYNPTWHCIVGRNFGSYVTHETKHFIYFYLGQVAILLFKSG

[2] = biological target: T1, 6xHis-tagged LC8 (DYNLL2); assay: fluorescence polarisation

Row | Binder | Kd [1] | Kd [2] | binding result [2]
1 | KESCNMETQTS [OFD1 peptide (KESCNMETQTS)] | 12.5 ± 1.3 µM | 12.8 µM | 
2 | {FITC}-TSQEDKATQTL [FITC-labeled BMF peptide (FITC-TSQEDKATQTL)] |  |  | binds
